Experimental data from paper PMC3817844 (Angewandte Chemie (International ed. in English), 2013).

Biological target: Glu92 (UniProt position 93, EQFRVEDKDGN)
Experiment: kinetics
Settings: Ca2+-bound (active) protein; the protein is inactive without Ca2+

Row | Compound | pKa
1 | CaM F92E round 7 variant, tag removed (Gallus gallus; F92E;M144R;H107I;L112R;I85L;A128T;M124L;A88Q) | 6.43±0.02
2 | AlleyCat7 (calmodulin C-terminal domain with round 7 mutations) (Gallus gallus; F92E;M144R;H107I;L112R;I85L;A128T;M124L;A88Q) | 6.39±0.02

Biological target: Glu92 (UniProt position 93, EAFRVEDKDGN)
Experiment: kinetics
Settings: Ca2+-bound (active) protein; the protein is inactive without Ca2+

Row | Compound | pKa
3 | CaM F92E 5R (round 5 variant), with affinity tag (Gallus gallus; F92E;M144R;H107I;L112R;I85L;A128T) | 6.60±0.02
4 | CaM F92E (full-length calmodulin F92E) (Gallus gallus; F92E) | 6.98±0.05
5 | CaM F92E round 4 variant (F92E/M144R/H107I/L112R/I85L) (Gallus gallus; F92E;M144R;H107I;L112R;I85L) | 6.93±0.03
6 | CaM F92E 5R (round 5 variant), affinity tag removed (Gallus gallus; F92E;M144R;H107I;L112R;I85L;A128T) | 6.47±0.03
7 | CaM F92E round 1 variant (F92E/M144R) (Gallus gallus; F92E;M144R) | 7.21±0.06
8 | CaM F92E round 2 variant (F92E/M144R/H107I), tag removed (Gallus gallus; F92E;M144R;H107I) | 6.73±0.03
9 | CaM F92E round 3 variant (F92E/M144R/H107I/L112R) (Gallus gallus; F92E;M144R;H107I;L112R) | 6.70±0.03
10 | CaM F92E round 6 variant (Gallus gallus; F92E;M144R;H107I;L112R;I85L;A128T;M124L) | 6.67±0.01

Same assay, conditions: Ca2+-bound (active) protein; the protein is inactive without Ca2+; cited from earlier work

Row | Compound | pKa
11 | AlleyCat (calmodulin C-terminal domain F92E) (Gallus gallus; F92E) | 6.9±0.1

Biological target: AlleyCat; AlleyCat7 (Gallus gallus, UniProt P62149, A129T/A89Q/F93E/H108I/I86L/L113R/M125L/M145R)
Experiment: inhibition of Kemp elimination
Format: biochemical
Settings: not given

Row | Compound | Ki [µM]
12 | O=[N+]([O-])c1ccc2[nH]nnc2c1 [5-NBT, 5-nitro-benzotriazole] | 18
